Earlier results on one substance are cited in PMC10256198 (European Heart Journal, 2023).

For this data set the following is noted: stated in the introduction, no reference given.

Consider “Ghrelin: endogenous 28 amino acid anabolic peptide hormone, activated by acylation of amino-acid 3 (GSSFLSPEHQRVQQRKESKKPPAKLQPR; Ghrelin-28; UniProt Q9UBU3 24-51, looked up)”, for which the plasma half time is 24 to 30 min.
